Data as given in PMC6658013.

How the values were obtained:
[1] = molecular target: prefusion-stabilized RSV F variant DS-Cav1 from strain A2, tags removed, Endo H-treated (form used for crystallization) (human respiratory syncytial virus subtype A (strain A2)) (UniProt P03420); assay: crystal structure
[2] = molecular target: prefusion-stabilized RSV F (DS-Cav1), subtype A (strain A2), with C-terminal His tag and Strep-tag I (human respiratory syncytial virus subtype A (strain A2)) (UniProt P03420); assay: SPR
[3] = molecular target: subtype A DS-Cav1 with a K209Q substitution (form used for SPR) (human respiratory syncytial virus subtype A (strain A2)) (UniProt P03420); assay: SPR
[4] = molecular target: prefusion-stabilized RSV F (DS-Cav1), subtype B (strain B9320), with C-terminal His tag and Strep-ta (human respiratory syncytial virus subtype B (strain B9320)); assay: SPR

AM22 antigen-binding fragment (Fab), sequence (VH): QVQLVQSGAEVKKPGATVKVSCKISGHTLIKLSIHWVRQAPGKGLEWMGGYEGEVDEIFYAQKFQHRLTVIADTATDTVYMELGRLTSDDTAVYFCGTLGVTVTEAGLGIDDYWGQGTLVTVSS
AM22 antigen-binding fragment (Fab), sequence (VL): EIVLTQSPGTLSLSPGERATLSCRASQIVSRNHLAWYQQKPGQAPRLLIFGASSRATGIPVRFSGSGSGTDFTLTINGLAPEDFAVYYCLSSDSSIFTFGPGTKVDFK

Substance	stoichiometry N (Fabs per F trimer) [1]	Kd [2] [nM]	Kd [3] [nM]	Kd [4] [nM]
AM22 antigen-binding fragment (Fab)	3	0.12	6.7	6.1
D25 Fab	–	< 0.064	–	0.33
